Our source for the Kd values is patent publication US20140308281A1 (OSE IMMUNOTHERAPEUTICS, published 2014).

Sequences and labels used below:
B1: MD707-1 (antibody, V domains shown)
VH: AVHLVESGGGLVQPKESLKISCAASGFTFSNAAMFWVRQAPGKGLEWVARIRTKANNYATYYADSVKGRFTISRDDSKSMVYLQMDNVKTDDTAMYYCIVVVLTTTRDYFDYWGQGVMVTVSS
VL: DIVLTQAPLSVSVTPGESASISCRSSQSLLTVKGITSLYWFLQKPGKSPQLLMYRMSNLASGVPDRFRGSGSETDFTLKISKVETEDVGVYYCAQFLEYPHTFGAGTKLELKR
notes: also called 7MD07-1; rat anti-human CD127 Mab MD707-1
B2: MD707-3 (antibody, V domains shown)
VH: AVHLVESGGGLVQPKESLKISCAASGFTFSNAAMYWVRQAPGKGLEWVARIRTKANNYATYYAESVKGRFTISRDDSKSMVYLQMDNVKTDDTAMYYCIVVVLTTTRDYFDYWGQGVMVTVSS
VL: DIVLTQAPLSVSVTPGESASISCRSSQSLLTVKGITSLYWFLQKPGKSPQLLIYRMSNLASGVPDRFRGSGSETDFTLKISKVETEDVGVYYCAQFLEYPHTFGAGTKLELKR
notes: also called 7MD07-3; rat anti-human CD127 Mab MD707-3
B3: MD707-13 (antibody, V domains shown)
VH: QLKESGPGLVQPSQTLSLTCTVSGLSLPNNNIAWIRQSPGKGLEWMGVIWSNGDTDYNSAIRSRLSISRDSSKSQVFLRMNSLQSEDTAMYFCAREGMTTLDYWGQGVVVTVSS
VL: EIVLTQSPTTMAASPGEKVTITCRASSSVSYMHWFQQKSGSSPKPWIYDSSDLASGVPDRFSGSGSGTSYSLTISSMEAEDAATYYCLQRSSYPRTFGGGTKLELKR
notes: also called 7MD07-13; rat anti-human CD127 Mab MD707-13

The assay has as its target T1, CD127 (as used in the BIAcore measurement of Table 1) (human, UniProt P16871 21-239, limits assumed).
T1 construct: the Mabs are called anti-human CD127; also called alpha chain of the IL-7 receptor; IL-7Ralpha
T1 sequence (looked up): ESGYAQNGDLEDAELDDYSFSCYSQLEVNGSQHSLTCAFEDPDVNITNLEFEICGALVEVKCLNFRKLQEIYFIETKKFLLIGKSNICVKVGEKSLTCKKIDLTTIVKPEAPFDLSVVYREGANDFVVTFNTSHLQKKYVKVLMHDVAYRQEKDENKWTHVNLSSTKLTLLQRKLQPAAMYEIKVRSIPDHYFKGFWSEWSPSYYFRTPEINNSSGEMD
Kind of assay: SPR (BIAcore). (In general: In SPR one partner is held on a chip, and binding of the other changes the refractive index at the surface.)
What is called Kd is a measure of binding affinity in units of concentration. A low value points to a tighter complex. Turning to B1, the Kd was 15.9 nM. This counts as double-digit nanomolar.

Consider B2, for which binding was characterised by a dissociation constant (Kd) of 6.52 nM.

B3 gave a dissociation constant Kd of 1.31 nM.
